Earlier results on 2 substances are cited in article PMC4792251.

Read-outs that look alike come from different tables or passages of the source.

The target of data set [1] is Mcl-1 (Homo sapiens) (UniProt Q07820).
Data set [2] deals with BHRF1 (Epstein-Barr virus) (UniProt P03182).
The target of data set [3] is Mcl-1 (Homo sapiens) (UniProt Q07820). The source holds these as a separate data set.

Bid BH3 peptide, sequence (P55957 80-99): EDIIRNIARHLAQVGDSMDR
UniProt Q07820, sequence (Q07820 whole entry): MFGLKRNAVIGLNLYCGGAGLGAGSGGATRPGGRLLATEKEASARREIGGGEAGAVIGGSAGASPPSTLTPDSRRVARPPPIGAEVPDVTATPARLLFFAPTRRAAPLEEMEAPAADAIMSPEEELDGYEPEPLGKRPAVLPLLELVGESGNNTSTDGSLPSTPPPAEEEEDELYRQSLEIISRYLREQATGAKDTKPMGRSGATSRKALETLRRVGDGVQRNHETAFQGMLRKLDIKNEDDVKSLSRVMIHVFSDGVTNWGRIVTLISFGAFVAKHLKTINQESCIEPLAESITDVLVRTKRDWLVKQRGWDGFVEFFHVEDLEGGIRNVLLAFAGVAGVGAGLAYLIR
Noxa B BH3 peptide, sequence (Q9JM54 68-87): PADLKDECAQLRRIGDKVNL
UniProt P03182, sequence (P03182 whole entry): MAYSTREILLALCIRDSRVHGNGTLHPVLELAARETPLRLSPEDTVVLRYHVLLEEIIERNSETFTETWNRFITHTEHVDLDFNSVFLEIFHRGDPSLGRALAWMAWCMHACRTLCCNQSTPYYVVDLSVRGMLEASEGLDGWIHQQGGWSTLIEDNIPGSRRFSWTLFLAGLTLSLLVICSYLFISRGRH

The Kd is the free concentration of one partner at which half of the binding sites on the other are occupied at equilibrium, for simple one-to-one binding. In the case of Bid BH3 peptide, the figures for the Kd in data set [1] and in data set [2] were less than 0.01 µM and 0.099 µM, respectively.

As for Noxa B BH3 peptide, the equilibrium dissociation constant (Kd) in data set [3] is 0.028 µM.
